Test results from US20140134177A1 (ONCOMED PHARMACEUTICALS, published 2014).

B1: RSPO1-CD4TM (ligand)
chain: SRGIKGKRQRRISAEGSQACAKGCELCSEVNGCLKCSPKLFILLERNDIRQVGVCLPSCPPGYFDARNPDMNKCIKCKIEHCEACFSHNFCTKCKEGLYLHKGRCYPACPEGSSAANGTMECSSPAQCEMSEWSPWGPCSKKQQLCGFRRGSEERTRRVLHAPVGDHAACSDTKETRRCTVRRVPCPEGQKRRKGGQGRRENANRNLARKESKEAGAGSRRRKGQQQQQQQGTVGPLTSAGPAMALIVLGGVAGLLLFIGLGIFF
notes: domain: transmembrane domain; also called cell-surface RSPO1; RSPO1 transfected cells

Key:
RSPO1-CD4TM = target: B1; assay: FACS, Fc fusion on HEK 293 cells with RSPO1-CD4TM
Experimental: (§1) FIG. 7. RSPO1 Activates Beta-Catenin Signaling via Binding to LGR5. A) HEK 293 cells transiently transfected with RSPO1-CD4TM and GFP were incubated with LGR5-Fc, LRP6FL-Fc, LRP6E1-2-Fc, or FZD1-10-Fc as indicated. […] B) HEK 293 cells transiently transfected with […] and GFP were incubated in the presence of heparin with (in duplicate) RSPO1-Fc (top), FZD8-Fc (middle), or a FLAG antibody as a positive control (bottom). […] HEK 293 cells transiently transfected with FLAG-LGR5-CD4TM and GFP were incubated in the presence of heparin with RSPO1-Fc, RSPO2-Fc, RSPO3-Fc, RSPO4-Fc, FZD8-Fc, or a FLAG antibody as a positive control as indicated.
(§2) To determine the mechanism by which RSPO1 activates beta-catenin signaling, FACS analysis was used to assess binding between RSPO1 and LGR5. In certain embodiments, binding between soluble LGR5 and cell-surface RSPO1 was determined. A cell-surface RSPO1 protein was generated by ligating full-length human RSPO1 to the transmembrane domain of CD4 using standard recombinant DNA techniques (RSPO1-CD4TM). HEK 293 cells were transiently transfected RSPO1-CD4TM and GFP. After 48 hours, cells were suspended in ice cold PBS containing 2% FCS and then incubated on ice in the presence of LGR5-Fc, LRP6-ECD-Fc (containing the extracellular domain of human LRP6 fused to an Fc domain), LRP6E1-2-Fc (containing amino acids 1-629 of human LRP6 fused to an Fc domain), or various FZD-Fc constructs, including FZD1-10. […] Only a weak interaction between RSPO1 and the WNT co-receptor LRP6 was detected.

FLAG-LGR5-CD4TM = target: T1, FLAG-LGR5-CD4TM (human, UniProt P01730 397-418, limits assumed); assay: FACS, Fc fusion on HEK 293 cells with FLAG-LGR5-CD4TM, with heparin
T1 construct: domain: transmembrane domain; also called cell-surface LGR5; LGR5 transfected cells; not shown: N-terminal FLAG tag
Experimental: In certain embodiments, binding between soluble RSPO1 and cell-surface LGR5 was determined. A variant cell-surface LGR5 protein was generated by ligating amino acids 22-564 of LGR5 to an N-terminal FLAG tag and to the transmembrane domain of CD4 using standard recombinant DNA techniques (FLAG-LGR5-CD4TM). HEK 293 cells were transiently transfected with FLAG-LGR5-CD4TM and GFP. After 48 hours, cells were suspended in ice cold PBS containing 2% FCS and heparin and then incubated on ice in the presence of RSPO1-Fc, FZD8-Fc, or a FLAG antibody as a positive control.

FZD2-Fc = FZD2-Fc (UniProt Q14332 24-159); assay: FACS, Fc fusion on HEK 293 cells with RSPO1-CD4TM
Experimental: as §1, §2

FZD1-Fc = target: T2, FZD1-Fc (UniProt Q9UP38 87-237); assay: FACS, Fc fusion on HEK 293 cells with RSPO1-CD4TM
T2 construct: also called FZD1-10-Fc; FZD-Fc constructs; not shown: Fc
Experimental: as §1, §2

FZD7-Fc = FZD7-Fc (UniProt O75084 33-170); assay: FACS, Fc fusion on HEK 293 cells with RSPO1-CD4TM
Experimental: as §1, §2

Row | binding result (RSPO1-CD4TM) | also measured | Binder
1 | no binding |  | FZD4-Fc (Fc fusion, UniProt Q9ULV1 40-170, looked up, also called FZD1-10-Fc; FZD-Fc constructs; not shown: Fc) EEERRCDPIRISMCQNLGYNVTKMPNLVGHELQTDAELQLTTFTPLIQYGCSSQLQFFLCSVYVPMCTEKINIPIGPCGGMCLSVKRRCEPVLKEFGFAWPESLNCSKFPPQNDHNHMCMEGPGDEEVPLP
2 | no binding |  | FZD6-Fc (Fc fusion, UniProt O60353 19-146, looked up, also called FZD1-10-Fc; FZD-Fc constructs; not shown: Fc) HSLFTCEPITVPRCMKMAYNMTFFPNLMGHYDQSIAAVEMEHFLPLANLECSPNIETFLCKAFVPTCIEQIHVVPPCRKLCEKVYSDCKKLIDTFGIRWPEELECDRLQYCDETVPVTFDPHTEFLGP
3 | no binding |  | FZD10-Fc (Fc fusion, UniProt Q9ULW2 21-154, looked up, also called soluble FZD10; FZD1-10-Fc; not shown: Fc) ISSMDMERPGDGKCQPIEIPMCKDIGYNMTRMPNLMGHENQREAAIQLHEFAPLVEYGCHGHLRFFLCSLYAPMCTEQVSTPIPACRVMCEQARLKCSPIMEQFNFKWPDSLDCRKLPNKNDPNYLCMEAPNNG
4 | no binding |  | FZD5-Fc (Fc fusion, UniProt Q13467 27-157, looked up, also called FZD1-10-Fc; FZD-Fc constructs; not shown: Fc) ASKAPVCQEITVPMCRGIGYNLTHMPNQFNHDTQDEAGLEVHQFWPLVEIQCSPDLRFFLCSMYTPICLPDYHKPLPPCRSVCERAKAGCSPLMRQYGFAWPERMSCDRLPVLGRDAEVLCMDYNRSEATT
5 | no binding | binding result (FLAG-LGR5-CD4TM): no binding | FZD8-Fc (Fc fusion, UniProt Q9H461 28-158, looked up, also called soluble FZD8; FZD1-10-Fc; not shown: Fc) ASAKELACQEITVPLCKGIGYNYTYMPNQFNHDTQDEAGLEVHQFWPLVEIQCSPDLKFFLCSMYTPICLEDYKKPLPPCRSVCERAKAGCAPLMRQYGFAWPDRMRCDRLPEQGNPDTLCMDYNRTDLTT
6 | no binding |  | FZD9-Fc (Fc fusion, UniProt O00144 23-159, looked up, also called FZD1-10-Fc; FZD-Fc constructs; not shown: Fc) LEIGRFDPERGRGAAPCQAVEIPMCRGIGYNLTRMPNLLGHTSQGEAAAELAEFAPLVQYGCHSHLRFFLCSLYAPMCTDQVSTPIPACRPMCEQARLRCAPIMEQFNFGWPDSLDCARLPTRNDPHALCMEAPENA
7 | no binding |  | FZD3-Fc (Fc fusion, UniProt Q9NPG1 23-143, looked up, also called FZD1-10-Fc; FZD-Fc constructs; not shown: Fc) HSLFSCEPITLRMCQDLPYNTTFMPNLLNHYDQQTAALAMEPFHPMVNLDCSRDFRPFLCALYAPICMEYGRVTLPCRRLCQRAYSECSKLMEMFGVPWPEDMECSRFPDCDEPYPRLVDL
8 |  | binding result (FZD2-Fc): no binding; binding result (FZD1-Fc): no binding; binding result (FZD7-Fc): no binding | B1
